{"source": "paper PMC1326243", "about": "(Nucleic Acids Research, 2006)", "target": "the molecule itself", "test": "cross-linking"}
{"protein": "Bacillus subtilis LrpC (natural protein, B. subtilis, UniProt P96582 1-144, looked up) MKLDQIDLNIIEELKKDSRLSMRELGRKIKLSPPSVTERVRQLESFGIIKQYTLEVDQKKLGLPVSCIVEATVKNADYERFKSYIQTLPNIEFCYRIAGAACYMLKINAESLEAVEDFINKTSPYAQTVTHVIFSEIDTKNGRG", "values": [{"measurement": "stoichiometry N", "result": "≥ 2"}]}
{"protein": "B.subtilis RecU Holliday-junction resolvase (enzyme, B. subtilis, UniProt P39792 1-206, looked up) MIRYPNGKTFQPKHSVSSQNSQKRAPSYSNRGMTLEDDLNETNKYYLTNQIAVIHKKPTPVQIVNVHYPKRSAAVIKEAYFKQSSTTDYNGIYKGRYIDFEAKETKNKTSFPLQNFHDHQIEHMKQVKAQDGICFVIISAFDQVYFLEADKLFYFWDRKEKNGRKSIRKDELEETAYPISLGYAPRIDYISIIEQLYFSPSSGAKG", "values": [{"measurement": "stoichiometry N", "result": 2}]}
